Experimental data taken from paper PMC12714700.

Molecular target: SARS-CoV-2 Delta spike-ferritin fusion protein (Delta spike-ferritin VLP antigen) (SARS-CoV-2 (Delta variant) | Helicobacter pylori) (UniProt P0DTC2)
Assay: cryo-EM structure

SARS-CoV-2 Delta spike-ferritin fusion protein (Delta spike-ferritin VLP antigen) (from UniProt P0DTC2 14-1163)
stoichiometry N: 24
